The text below walks through data of publication PMC8427231, “Mechanism of dimerization and structural features of human LI-cadherin” (The Journal of Biological Chemistry, 2021).

Changes are numbered by the printed parent chain.

Data set [1] deals with the molecule itself. The data set is described as follows: SEC-MALS; Superose 12 10/300 GL, 45 μl injected at 100 μM or 50 μM, eluted at about 4 μM; protein conjugate analysis. (Size exclusion chromatography separates by hydrodynamic size, large species first.)
Data set [2] concerns the molecule itself. The data set is described as follows: AUC; sedimentation velocity (SV-AUC), 20 °C, buffer A (10 mM Hepes-NaOH pH 7.5, 150 mM NaCl, 3 mM CaCl2); EC1-7 at 1-20 μM, EC1-2, EC3-4, EC1-4, EC1-5 at 1-60 μM, EC1-4F224A at 1-120 μM; KD of the monomer-dimer equilibrium (dimer to monomers) from the weight-average sedimentation coefficient, SEDPHAT.
Data set [3] addresses T1, human LI-cadherin EC1-5 (human).
T1 chain: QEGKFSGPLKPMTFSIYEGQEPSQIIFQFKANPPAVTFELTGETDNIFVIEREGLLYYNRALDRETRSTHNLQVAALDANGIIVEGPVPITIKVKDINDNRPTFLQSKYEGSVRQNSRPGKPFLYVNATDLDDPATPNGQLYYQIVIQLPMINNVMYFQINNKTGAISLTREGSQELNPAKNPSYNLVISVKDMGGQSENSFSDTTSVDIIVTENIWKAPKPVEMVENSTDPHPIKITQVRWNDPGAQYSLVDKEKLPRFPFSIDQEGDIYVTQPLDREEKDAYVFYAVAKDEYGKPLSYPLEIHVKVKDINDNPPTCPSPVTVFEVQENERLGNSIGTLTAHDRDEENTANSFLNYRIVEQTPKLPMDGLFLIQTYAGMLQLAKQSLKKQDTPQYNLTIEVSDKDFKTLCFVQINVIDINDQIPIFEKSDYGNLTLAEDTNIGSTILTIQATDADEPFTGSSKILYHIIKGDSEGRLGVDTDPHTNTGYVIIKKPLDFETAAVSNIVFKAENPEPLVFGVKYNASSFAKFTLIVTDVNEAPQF
The description is as above. To be noted: both partners purified.

B1: human LI-cadherin EC1-4 N176A (domain or fragment)
chain: QEGKFSGPLKPMTFSIYEGQEPSQIIFQFKANPPAVTFELTGETDNIFVIEREGLLYYNRALDRETRSTHNLQVAALDANGIIVEGPVPITIKVKDINDNRPTFLQSKYEGSVRQNSRPGKPFLYVNATDLDDPATPNGQLYYQIVIQLPMINAVMYFQINNKTGAISLTREGSQELNPAKNPSYNLVISVKDMGGQSENSFSDTTSVDIIVTENIWKAPKPVEMVENSTDPHPIKITQVRWNDPGAQYSLVDKEKLPRFPFSIDQEGDIYVTQPLDREEKDAYVFYAVAKDEYGKPLSYPLEIHVKVKDINDNPPTCPSPVTVFEVQENERLGNSIGTLTAHDRDEENTANSFLNYRIVEQTPKLPMDGLFLIQTYAGMLQLAKQSLKKQDTPQYNLTIEVSDKDFKTLCFVQINVID
notes: human LI-cadherin, extracellular cadherin repeats 1-4, point mutant; Parent: m4; source: Expi293F cells, culture supernatant, purified (Ni-NTA IMAC, SEC)
As to B1, in data set [1], the binding result is listed as “binds”.

B2: human LI-cadherin EC1-4 L355A (domain or fragment)
chain: B1 chain with A154N, L333A
notes: as for B1
For the molecule B2, the binding result in data set [1] is recorded as “binds”.

B3: human LI-cadherin EC1-4 Y399A (domain or fragment)
chain: B1 chain with A154N, Y377A
notes: as for B1
Take B3: the binding result in data set [1] is reported as “binds”.

B4: human LI-cadherin EC1-4 N371A (domain or fragment)
chain: B1 chain with A154N, N349A
notes: as for B1
As to B4, the binding result in data set [1] is given as “binds”.

B5: human LI-cadherin EC1-4 Q404A (domain or fragment)
chain: B1 chain with A154N, Q382A
notes: as for B1
For the molecule B5, the binding result in data set [1] is listed as “binds”.

B6: human LI-cadherin EC1-4 (domain or fragment)
chain: B1 chain with A154N
modifications: N-glycans (four modelled on chain A, two on chain B of the crystal structure; sites not given)
notes: human LI-cadherin, extracellular cadherin repeats 1-4; Theoretical mass without glycan 49.8 kDa; also called EC1-4WT; WT; source: Expi293F cells, culture supernatant, purified (Ni-NTA IMAC, SEC)
The Kd is the equilibrium constant for the complex coming apart. A low value points to tighter binding. What is called stoichiometry N is the number of molecules, sites or subunits per partner or assembly. With B6, in data set [2], binding was characterised by a dissociation constant (Kd) of 39.8 µM and the “stoichiometry N” value worked out at 2.

B7: human LI-cadherin EC1-4 N222A (domain or fragment)
chain: B1 chain with A154N, N200A
notes: as for B1
Take B7: the binding result in data set [1] was “binds”.

B8: human LI-cadherin EC1-4 V210A (domain or fragment)
chain: B1 chain with A154N, V188A
notes: as for B1
Regarding B8, in data set [1], the binding result was “binds”.

B9: human LI-cadherin EC1-5 (domain or fragment)
chain: T1 chain
modifications: N-glycosylated (Expi293F), Ca2+-bound; limits by convention: mature N-terminus as in PDB 7CYM (EC1-4), end of the UniProt Cadherin 5 domain; His tag omitted; homodimerizes / N-glycosylated …
For the molecule B9, in data set [3], the dissociation constant Kd turned out to be 22.8 µM and the “stoichiometry N” value turned out to be 2.

B10: human LI-cadherin EC1-2 (domain or fragment)
chain: GPLKPMTFSIYEGQEPSQIIFQFKANPPAVTFELTGETDNIFVIEREGLLYYNRALDRETRSTHNLQVAALDANGIIVEGPVPITIKVKDINDNRPTFLQSKYEGSVRQNSRPGKPFLYVNATDLDDPATPNGQLYYQIVIQLPMINNVMYFQINNKTGAISLTREGSQELNPAKNPSYNLVISVKDMGGQSENSFSDTTSVDIIVTE
notes: human LI-cadherin, extracellular cadherin repeats 1-2; source: Expi293F cells, culture supernatant, purified (Ni-NTA IMAC, SEC)
For the molecule B10, in data set [2], the Kd was 75 µM and the “stoichiometry N” value worked out at 2.
